From the NTF2 design screens of Basanta et al. (2020)

Experiment: protease stability score; higher = more stable; yeast display proteolysis, trypsin and chymotrypsin;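 note: relative to predicted unfolded state with 0 unfolded-like and 1 meaning tenfold more protease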

SEFENLQRLWLEILEHHSETGDERFMSRLADPNAKLLVNGKEFHGMEEVVEFIERLWEKFKNVRVEIHDFTVQGNKIDMDVILYYGEKVHRTEMHAVKYDGRWFMRELSIR
protease stability score: 1.38

SEHDDLIRHYAERIRKSLLTGDEHDLTELLDPNTYFEVRIGDFTLKAHGWERVHEVLDMINENLGIKHDDIQHIEWYGDKIHIDTRVRIGDKEIHTEVIIVVINGKVSKIEHRVI
protease stability score: 0.45

SEHDEDLENAWRVIKHSTETGDEETSRELIDPNARIDINGKDLHGREEISRIFSEWRVHHIEIKHVEHVGNKVHIDGHEDINVDGRRMETRIELIITKINGKWLVHSIRYI
protease stability score: 0.53

SEHDEELERWARLILHLLYTGNEEELRKMMDPDVRLNVNGRELHGWKKAMELWRIIKEHLRIHHVDIHDIDVFDGRNHVDIRINTNINGQEYIYKTEIIIVIIDGRMRSHEVRVK
protease stability score: 1.74

SEHDEELRHASEKLWHDILTGDWKSIKELADPNVRVIIWQGEKEINLHGREEVTRVIKEMGFKHTHIEHQSTINGRMIVDNHSNINGKRVHLHFVIEKINGRWFLHEMRIEFE
protease stability score: 1.47

SEHDEHIEHLLKEIIEDIETGDWHHWRHLADPHTRMEVGDKEKHGWKVYFEILHRYRGARLEFKSVDVQGDKIHVETHVHVNGRSFDTELRFYIVNGKMQEVIIQFR
protease stability score: 0.85

SEHDEHLQRNWERFLHHIETGDWRDHEENADPHARVHIGEFDLHGREKFSELFMRLGVKHIEIQRLIVQGDKITADTVVHYGDKRLKTNIFVTKINGRWQLHSIEMR
protease stability score: 1.42

SEHDELLNRLSELLTHLILTGDWKTFSELADPNVLAITDINGRTRHHHGREHFLNLLEELLREFGIDHLWITHIDAFNGVSHTHVNIEVNGRTHELRLHIVIIDGKVHEVHFSFK
protease stability score: 0.34

SEHDELVKRNLEEMIRAAETGDEEKLRQLMDPHVKLEVNGREFVGREHWERFFREVIHRFGVTRIEIILHRIHDIDGRIYVDGTEVYGDYFERSLWISLKVNGKWVITHQHIH
protease stability score: 0.336

SEHDEMIHKIAKEIMEVLVTGNEEWLDKLVDPHMRLEFNGKDIHGREKLNELLRKFKNVKLEYHINSIEAWDGRTQVNGKVHIEYGDKSRIKDTRLHVLIWDGKIREMRVDHD
protease stability score: 2.23

SEHDEQAEDWTRKHIHWFETGDEELLETLLDPNTRHIVDGQEYHGRENLRRMFHYLLSFMGIKYVRLTNHEVVGDKAHIHMTTNVNGQHTRLILHLIVINGRVHTIEIRVR
protease stability score: 0.544

SEHDERRRRVLELWFHALHTGDEEKLQELMDPDARLDINGVKLHGRDKLIEFFREWRFKHVDIHDMDEFNGVVNIKIEHVEIYNGQHRRVETRIFLIKINGRWHFRHIELH
protease stability score: 1.66

SEHDESIHRHFEKIHESIRTGDEELLRKFLDPNTLLVNEDEKVVGWEQWVEQVRRHLTELGAKHVSFSLHDRRFFDGRLHLDSRVIIEIGDKRLSLETEVINLKFNGRWIITSLTSS
protease stability score: 1.14

SEHDEYAKKVVEIIWKDMLTGDEDKFSEMADPDVRLDIGDKHHHGMEEMTEILTRVYKHIRIEDWRIRDIRHINGKAVVDGHTTIEIGDKRIHRRVELIVIVIDGRLKTLEYRVH
protease stability score: 1.09

SEHDHHSEWMSRLMFEAWLTGDEDFIMHLADPNTRSHLHYGDKEVNLHGRESFKRMVEELHRELGANHRDLKEVRLQGDKSLLRLEVRVGDKRREQHIIIIIVNGRVKSITVEVR
protease stability score: 0.874

SEHDKEMREWIKTLFELMYTGDWVILRELADPNAKFRQGDFTKIGREQYERHVRRHLDLLGHDNIEIHWEDVEIVGNYAVFHGHLTFNGKSTHVIIRVFVIDGRMKHEHVEIK
protease stability score: 1.3

SEHDKFTREMSEMLIEALLTGDWRIFEELADPNMRFHQGEFHFHGREEVSHRMLELVDLLGADHYDVREIRFQGDKIHTHLEYYIGDKLFRVDLHAEKVNGKWHLTIVHVDSH
protease stability score: 2.03

SEHDKVLRELINLLWEALATGDFDQLHKLLDPHVKLDIGEWHSHGRESFIKNWLDDIRRVKNVRYELRHMDVINGQAHLDIHESYDGVRYDSELIIFIIDGKIHEITVHIR
protease stability score: 0.83

SEHDNLMKEKLTLMEHTLMTGDEEVWRELLDPEALTTVDGQHFHGREEVVKFLRKVRRRVDHITSIEIESIDPQGEKLHLDGRNRIKIDGREIELNVVIIMRKINGRWFLRSWNVV
protease stability score: 1.22

SEHDRLAHEWMRVFLHSIWTGDEDTILKMIDPHMRLDIDGVTFHGRDDVREWFHHHRERVDHIKDVDIKDVRIFDGKAETDRIVHVQVDGKEVDEEVLVILIVIDGRVTSIIIEKR
protease stability score: 1.12

SEHEDMFREMAELLLESLVTGDFRQLKRLADPHMRLKINGKDTHGREEFSRVFKELDDELGVDHIEIKHLRVQGDKIHIHGKMHFDGRWHERHVDVEIFNGVVRHHRVEIR
protease stability score: 1.3

SEHEEASERMTRLTLHLFETGNEEVFNRLADPHTRVIINGQEHVGRETVIEFLKKERDELGADVLIIKDIDVERQGEKVEVIFHGEIKFNGRYYKVEIIIIYLKVDGKWFIESMKHIVK
protease stability score: 2.37

SEHEEDARRIFERWINSVNTGDERLIYEMHDPHVRVEINGREFHGREEIHKLAHRIDHFKIHRIIERDVRLVNGRVELHGEIDYRFFFDGKELSSIHSLHMTLTKVNGRWSIEEERVK
protease stability score: 0.39

SEHEEDFKKATHEILEIWETGDEHRMSEYLDPNTRLSIDGKNIHGREKVEEILRRHWERLGIDHLRIKDLRVHTIDGRMHLDILVRFHYNGVTIDVHLHFNLIKIDGKWYIRSILEIDR
protease stability score: 0.418

SEHEEDLERFAREWIHIFKTGDFKMFNKLADPNVRVHINGKDNHGMEQWKHLKDRHEKELGVDRVDIHVDDVRFIGDKIEMDVTVRQGEFSTRWHVELIVVDGRLKHVSFHVR
protease stability score: 1.16

SEHEEEARKASQESLHDLKTGDEDSFERLLDPNTRVIVLFDGREIIHVGREEVTRFISEWLKRYKGMRIEMQDVRVIDGRIDIHLKTDVDGKDHRLDIHSEKINGQWFLKSIFVDVH
protease stability score: 1.95

SEHEEELHKFFEEFLKAVETGDWRRLMELIDPHARLHIHQGEKEDHDHGRKFLKEFLKRYPNLRIQVTSLRIDVIDGVAIIILRGHDDVNGVELHSTIRIVVTKVNGQWRVEEVEIRIR
protease stability score: 1.38

SEHEEESHIAFEIYQKWVQTGDWEQLDHNFDPDTRVEINGVEHVGMEHFHELEKRLHEHLGISKINSHVKHFEIFDGRLELFTIMEFNGRRIRTHHIAHKVNGRWRIKSIRFE
protease stability score: 1.43

SEHEEEVKHFIELIVHFLKTGDEDHLAKMADPHVRLHIGDKEFHGREDFSKWVHLLLHHWRLKTFILRRVHVQGEKAHIDGQLDFDVDGKKTLLDVHLTVRKIDGRWFIETVIDG
protease stability score: 2.35

SEHEEHIHKLMREWIEALLTGDEEHIEHLVDPHDRLNIDGRHYHGRENATKALHQKREQIRIEHIRVDDVKFYGDKVHVEMTVHGNINGKRIEIDTRFIIVVIDGVLRSFEFRHK
protease stability score: 0.122

SEHEEHIKHLAEEWIRLVLTGNEEIIDHLFDPNVRVEIDGREMIGREKMNEWMRHVLRHWRTHIVIRRMTAIGDKAHSDGELILHVGDKTIRTKVHFHLVIIDGRIHEVSVDIR
protease stability score: 1.58

SEHEEHIKRHIEHVIHHWMTGNWEELLRLMDPNVRLILHIGDKEIHSIGMEEILRRLHEYKKKIKNATIHIDHIDMQGDKTTIHETIHIGDYVYDTRIILVIVNGRIKRIEYQVH
protease stability score: 0.128

SEHEEHLKHISELMVKLFLTGDEELINHLADPDTRLNINGVHFIGREHAVKASKDFWDELGVNHIEIEDRKVINGRVTMTGHVHVGDKYRRTQNYLVVVNGRLKNVEWRID
protease stability score: 0.806

SEHEEHVRSAIERLSHAWRTGNEELFKELVDPHTRFIYGNKNMHGWEISEFFRRRVKGMTLHEVDIHHVEVINGRVHVNSILRGEINGKDTFEDHELHARKVDGRWVVTEMTIR
protease stability score: 0.732

SEHEEIMHKALLFLIYVLLTGDEEILHELLDPNARLDVNGREKHGREDWVQLKRELIHKIKNVRIELHDMKVIGDFLISDQRHDYDGREYKMDVFAFKVDGQWKVREEKLD
protease stability score: 1.44

SEHEEKSKEASEQMFQILRTGDWHKWLELLDPHYQLEIGDKRFHGMEISSELLRHLLEELGVERVEVYVKHQETQGDKVINDGSVDINGRELRMILYARKVDGRWVLKSMKVK
protease stability score: 1.39

SEHEELLERIAEFVMKSWITGNEELDERLADPDARSIVNGKHLHGRELHSEFLRKLLEQLRIHHIHMTDRRVFDGRAIEHSVVHGEIDGVKVTVEVHIRVVVINGRLKSLRIEIR
protease stability score: 0.149

SEHEEMEQDAREIMERVFHTGDETTMRKLADPHVKFHIGDKLHVGRELFDNFVRYVLEKFKNIRVETEEVRDVNGVVIQDLDENYNGQRYKVRWVMVKINGKWTIERVEIR
protease stability score: 0.599

SEHEERMRRYIEIFIHNLITGDEHMINRMADPSTIVIINGVRLWGREEFSKWVRRERERIDHIEMRIEHLDVQGDKATVDVRVEEHVGDKSEERSLIIRLIVVNGRSHSMHFEVR
protease stability score: 1.59

SEHEEVASRVTTEIIHNLLTGDWQRTTELMDPNTKLDVNGQHHHGWELYHKVLREWHEELRVHDMKEHDLKVIDGVAFSNMRVDIEINGVRFETEIRIIVVVVNGRIKSISFESK
protease stability score: 0.771

SEHEEYNRELSELFWHWFQTGDEEMMNKNVDPDARMIVGEKTHHGWEEFVKLLRETLKRLGADHIILRRMNVQGNKSHIDGEIRINGVTIKTELDLVVVDGRISSLRLSFH
protease stability score: 1.05

SEHEHELIEFAELFREIIATGDEDALRRLLDPNTQWDFNGVDLHGRDEVIKELRRWRDRFPNMRVHIRRIRLEVINGRLQLDLHTFVEFDGVEFVQHIHLHIEKVNGRWSVHHIEVRYR
protease stability score: 1.1

SEHEHIAEKMSELLREIVETGDFEQLERLADPHVKLNVDGRNFHGMERFRELKERIRREFGVDHIHVEVERVEVIDGVVINHTKLIIEQGDKRRESRTTLIINKVNGQWRLDSVRVE
protease stability score: 0.488

SEHEHMIQVALELWLHTLHTGDEHKEERLHDPHARLRIGDKELHGREDVIRWMRKVKNVTINRVEVRRINFQGDKAILLVRIDGEFDGRRIDTEVIIIVVKVDGRWLFESMEID
protease stability score: 1.31

SEHEHSSRIAIELLLKTLKTGDERKIEENFDPNVRLIFEGRHIVGREEVFQHIHHLAHELRIEDMKIRRVEHVNGRIHIDLHVVIEINGQRIETDSHMVILKIDGKWKIELLEWR
protease stability score: 1.61

SEHEKFSEKYFQIWVRAVRTGDEDTLRELIDPDDRLDVNGQNFHGWEQVNEHLLHFIRKIKNVRIEVHLEHHEVQGDKIHLDMTLHLNVDGRETRHKTEIIARKIDGRWVFTEFRIK
protease stability score: 2.26

SEHEKHNRDVVRIVLHALLTGDEELFEENADPNVRTEIDVNGKEIQIHGRSKWVEWLRREIERFDHVRIDLKRIDVQGDKLHTDGHLRLKQGDKEITTDVRLHIVVVDGRIDSMEMSVH
protease stability score: 2.1

SEHEKIIVEWTRLLQEILRTGDEEMWLKLLDPHAKTHINGKDIHGMEEAARFWKELHKHMRIEDEEVRETRVVGNKAIYHMERKVNINGRTHEQEVELRVIIVDGQIKKISIHIH
protease stability score: 0.439

SEHEKMMREIAKEYIDWFLTGDEELERNLADPDTRLNVDGREHHGMEEVIDLWRRIGLSNVDLRIHHWRAYGEFVYFDGEYTVGDKKRKVHFEYFVVNGRLKEVRVEIR
protease stability score: 1.51

SEHEKVYHDAIKIYQDNLKTGDEKRMEKFFDPNVIIHIGDKELVGRELVRHQATELARRVDHVEVHIKHVDVQGEKIRINGEIEIEINGRTIRFETHLVILKVNGRWIIHSEFIL
protease stability score: 1.04
